Results taken from PMC10834949 (2024).

Molecular target: Aβ42 fibrils Aβ42 (Homo sapiens, UniProt P05067)
Assay: SPR

Aβ42 fibrils Aβ42, sequence (P05067 672-713): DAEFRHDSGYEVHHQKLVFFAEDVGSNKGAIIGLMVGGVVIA

B1: BRICHOS (proSP-C) BRICHOS (protein)
chain: TATFSIGSTGLVVYDYQQLLIAYKPAPGTCCYIMKIAPESIPSLEALTRKVHNFQMECSLQAKPAVPTSKLGQAEGRDAGSAPSGGDPAFLGMAVSTLCGEVPLYYI
  Kd: 12.9 nM
